B1: Azoarcus group I ribozyme (parent)
chain: GUGCCUUGCGCCGGGAAACCACGCAAGGGAUGGUGUCAAAUUCGGCGAAACCUAAGCGCCCGCCCGGGCGUAUGGCAACGCCGAGCCAAGCUUCGGCGCCUGCGCCGAUGAAGGUGUAGAGACUAGACGGCACCCACCUAAGGCAAACGCUAUGGUGAAGGCAUAGUCCAGGGAGUGGCGAAAGUCACACAAACCGG

Variants of: B1
Test: reverse-splicing fitness (ratio to wild type); higher = more active; in vitro selection; Mg2+ level not given
How it was run: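 An in vitro group I ribozyme library with randomized positions was T7-transcribed and gel-purified. In triplicate, 10 pmol RNA in EPPS pH 7.5 was reacted with 50 pmoles of a 30-nt RNA substrate for 1 h at 37 °C across several added MgCl2 levels (1–48 mM), then stopped with EDTA. Products were reverse transcribed from a substrate-complementary primer, PCR-amplified and sequenced (HiSeq 4000). Fitness is a variant's read proportion after selection over that before, normalised to wild type.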
Variant C82A A111C A120U A145C C150U C169G U176A has a reverse-splicing fitness of 0.00406. With C82A A111C A120U A145G C150A U176A the reverse-splicing fitness was 0.00754. Work on C82A A111C A120U A145G C150A U176C yielded a reverse-splicing fitness of 0.00799. Variant C82A A111C A120U A145G C150A U176G has a reverse-splicing fitness of 0.00381. Work on C82A A111C A120G C169G U176G yielded a reverse-splicing fitness of 0.00494. With C82A A111C A120G C169G U176A the reverse-splicing fitness was 0.0165. Work on C82A A111C A120G C169G U176C yielded a reverse-splicing fitness of 0.0214. C82A A111C A120U A145C C150A C169A U176G gave a reverse-splicing fitness of 0.00275. In the case of C82A A111C A120U A145C C150A C169A U176A, the reverse-splicing fitness is reported as 0.00291. C82A A111C A120U A145C C150A C169A U176C showed a reverse-splicing fitness of 0.00256. Variant C82A A111C A120U A145U C150A C169U U176C has a reverse-splicing fitness of 0.00301. C82A A111C A120U A145U C150A C169U U176A gave a reverse-splicing fitness of 0.00378. With C82A A111C A120U A145U C150A C169U U176G the reverse-splicing fitness was 0.00282. C82A A111C A120G A145U C169A U176A gave a reverse-splicing fitness of 0.00852. With C82A A111C A120G A145U C169A U176G the reverse-splicing fitness was 0.00466. C82A A111C A120G A145U C169A U176C gave a reverse-splicing fitness of 0.0104. In the case of C82A A111C A120U A145C C150A C169U U176G, the reverse-splicing fitness is reported as 0.00263. For C82A A111C A120U A145C C150A C169U U176A, the reverse-splicing fitness was 0.0036. In the case of C82A A111C A120U A145C C150A C169U U176C, the reverse-splicing fitness is reported as 0.00283. In the case of C82A A111C A120U A145G C150A C169A U176A, the reverse-splicing fitness is reported as 0.00894. C82A A111C A120U A145G C150A C169A U176C gave a reverse-splicing fitness of 0.00537. Variant C82A A111C A120U A145G C150A C169A U176G has a reverse-splicing fitness of 0.00349. C82A A111C A120U A145U C150U C169A U176C showed a reverse-splicing fitness of 0.00305. C82A A111C A120U A145U C150U C169A U176A gave a reverse-splicing fitness of 0.00334. C82A A111C A120U A145U C150U C169A U176G gave a reverse-splicing fitness of 0.00295. C82A A111C A120U A145U C150G U176C showed a reverse-splicing fitness of 0.00511. C82A A111C A120U A145U C150G U176A showed a reverse-splicing fitness of 0.00392. Variant C82A A111C A120U A145U C150G U176G has a reverse-splicing fitness of 0.00259. In the case of C82A A111C A120U A145C C150U C169A U176A, the reverse-splicing fitness is reported as 0.00309. C82A A111C A120U A145C C150U C169A U176G gave a reverse-splicing fitness of 0.00233. In the case of C82A A111C A120U A145C C150U C169A U176C, the reverse-splicing fitness is reported as 0.00378. For C82A A111C A120U A145U C150G C169G U176C, the reverse-splicing fitness was 0.00299. C82A A111C A120U A145U C150G C169G U176G gave a reverse-splicing fitness of 0.00306. Variant C82A A111C A120U A145U C150G C169G U176A has a reverse-splicing fitness of 0.00314. With C82A A111C A120U A145C C150A U176G the reverse-splicing fitness was 0.00289. In the case of C82A A111C A120U A145C C150A U176C, the reverse-splicing fitness is reported as 0.00528. In the case of C82A A111C A120U A145C C150A U176A, the reverse-splicing fitness is reported as 0.00393. With C82A A111C A120G A145U U176A the reverse-splicing fitness was 0.0134. Work on C82A A111C A120G A145U U176C yielded a reverse-splicing fitness of 0.0197. C82A A111C A120G A145U U176G gave a reverse-splicing fitness of 0.00466. Work on C82A A111C A120U A145U C150U C169G yielded a reverse-splicing fitness of 0.00466. C82A A111C A120U A145U C150U C169A gave a reverse-splicing fitness of 0.00321. For C82A A111C A120U A145U C150U C169U, the reverse-splicing fitness was 0.00409. C82A A111C A120U A145C C150G C169G U176G showed a reverse-splicing fitness of 0.00318. C82A A111C A120U A145C C150G C169G U176C gave a reverse-splicing fitness of 0.00325. With C82A A111C A120U A145C C150G C169G U176A the reverse-splicing fitness was 0.00291. C82A A111C A120U A145G C150U U176G showed a reverse-splicing fitness of 0.00369. Variant C82A A111C A120U A145G C150U U176C has a reverse-splicing fitness of 0.0108. With C82A A111C A120U A145G C150U U176A the reverse-splicing fitness was 0.00986. C82A A111C A120U A145C C150G C169U U176C gave a reverse-splicing fitness of 0.00347. With C82A A111C A120U A145C C150G C169U U176G the reverse-splicing fitness was 0.00285. With C82A A111C A120U A145C C150G C169U U176A the reverse-splicing fitness was 0.00398. C82A A111C A120G A145U C150U C169G U176A showed a reverse-splicing fitness of 0.012. Variant C82A A111C A120G A145U C150U C169G U176C has a reverse-splicing fitness of 0.014. For C82A A111C A120G A145U C150U C169G U176G, the reverse-splicing fitness was 0.00522. C82A A111C A120U A145G C169G U176A showed a reverse-splicing fitness of 0.00381. Work on C82A A111C A120U A145G C169G U176G yielded a reverse-splicing fitness of 0.00244. Work on C82A A111C A120U A145G C169G U176C yielded a reverse-splicing fitness of 0.00437. Work on C82A A111C A120G C169A U176A yielded a reverse-splicing fitness of 0.0155. C82A A111C A120G C169A U176C gave a reverse-splicing fitness of 0.0177. C82A A111C A120G C169A U176G gave a reverse-splicing fitness of 0.00465. C82A A111C A120U C169A U176A gave a reverse-splicing fitness of 0.00417. C82A A111C A120U C169A U176C gave a reverse-splicing fitness of 0.0037. In the case of C82A A111C A120U A145C C169U, the reverse-splicing fitness is reported as 0.00399. C82A A111C A120U A145C C169A gave a reverse-splicing fitness of 0.00286. In the case of C82A A111C A120U A145C C169G, the reverse-splicing fitness is reported as 0.00295. C82A A111C A120U A145C C150U C169A gave a reverse-splicing fitness of 0.00362. Variant C82A A111C A120U A145C C150U C169U has a reverse-splicing fitness of 0.00379. With C82A A111C A120U A145C C150U C169G the reverse-splicing fitness was 0.00378. Work on C82A A111C A120U A145U C150U C169U U176C yielded a reverse-splicing fitness of 0.00348. With C82A A111C A120U A145U C150U C169U U176G the reverse-splicing fitness was 0.00288. Variant C82A A111C A120U A145U C150U C169U U176A has a reverse-splicing fitness of 0.00402. For C82A A111C A120G C150U C169A U176G, the reverse-splicing fitness was 0.00621. C82A A111C A120G C150U C169A U176A gave a reverse-splicing fitness of 0.013. Variant C82A A111C A120G C150U C169A U176C has a reverse-splicing fitness of 0.0139. In the case of C82A A111C A120G C169G, the reverse-splicing fitness is reported as 0.00872. Work on C82A A111C A120G C169A yielded a reverse-splicing fitness of 0.0095. C82A A111C A120G C169U gave a reverse-splicing fitness of 0.00841. In the case of C82A A111C A120U A145C C169A U176A, the reverse-splicing fitness is reported as 0.00272. Variant C82A A111C A120U A145C C169A U176G has a reverse-splicing fitness of 0.00214. With C82A A111C A120U A145C C169A U176C the reverse-splicing fitness was 0.00295. C82A A111C A120U A145U C150A C169A U176C gave a reverse-splicing fitness of 0.00334. Work on C82A A111C A120U A145U C150A C169A U176G yielded a reverse-splicing fitness of 0.00272.

Source: the RNAGym collection of RNA variant scans (doi:10.1093/molbev/msab373)
